Here are results for 1 substance from publication PMC8861645.

This experiment deals with PggH (phosphoguanylyl guanylate hydrolase), VCA0593 of Vibrio cholerae (Vibrio cholerae El Tor N16961). Kind of experiment: SEC.

For orientation: stoichiometry N means the number of molecules, sites or subunits per partner or assembly. Consider “PggH (phosphoguanylyl guanylate hydrolase), VCA0593 of Vibrio cholerae (enzyme)”, for which the stoichiometry N stood at 2.
